Assay results: the supplement of paper PMC12042874
± gives the uncertainty stated by the source.

Experiment: amyloid nucleation score (Sup35N fusion, yeast selection) (log enrichment); library NNK3; higher = more nucleation; inactive = no reads after selection
Summary of the method: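 Three technical output replicates were used for random libraries. Psi-negative yeast expressing peptides of 20 random codons fused to Sup35N were induced with 100 μM copper sulfate for 24 hours and grown 7 days at 30°C on medium lacking adenine and uracil, and input and output plasmid inserts were Illumina-sequenced, excluding sequences with under 100 input reads. The nucleation score is the DiMSum log enrichment of output over input reads, centred on the mode score of non-aggregating sequences.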
For SDMVVKGERGYICILICRLR, the amyloid nucleation score was “inactive”.
SIFLMSFRA gave an amyloid nucleation score of 1.41 ± 0.1.
Substance GTGRSECNCMQGTHGLGICS has an amyloid nucleation score of -0.184 ± 1.5.
In the case of PHRFYYYWYSWCFILSNSCQ, the amyloid nucleation score is reported as “inactive”.
For SWEFPTDKSYMSCREPENPM, the amyloid nucleation score was “inactive”.
For MTAVVDRTSNGYSYVTGHLL, the amyloid nucleation score was “inactive”.
With RCSCLTFVVSTK the amyloid nucleation score was 0.424 ± 0.75.
ELLKPCNVCYRWYNTHALLV gave an amyloid nucleation score of 0.724 ± 0.18.
In the case of GRWFVCVQSAWCDCGGDVCV, the amyloid nucleation score is reported as “inactive”.
Substance NVSFILLYGQCSECTQDA has an amyloid nucleation score of 2.03 ± 0.067.
With TRHWDVRSRISRTLVCFGLK the amyloid nucleation score was “inactive”.
For TRFARA, the amyloid nucleation score was “inactive”.
With CVLWYCCYTQLSMQKCNSRM the amyloid nucleation score was “inactive”.
With GHIWFIAEVNSICYLLFLVS the amyloid nucleation score was “inactive”.
In the case of GGWLLSEGLC, the amyloid nucleation score is reported as “inactive”.
For KFARV, the amyloid nucleation score was “inactive”.
In the case of CGFAHFRNVALGWWYGVTLN, the amyloid nucleation score is reported as “inactive”.
MNRDTYSMWSVKDKMTFI gave an amyloid nucleation score of -0.124 ± 0.75.
In the case of DSADVMIAYASVVVVTIECC, the amyloid nucleation score is reported as “inactive”.
For VQISVNSVNLLKRWFIRAGT, the amyloid nucleation score was “inactive”.
For GPAVWPKWVSLAKWYPSEI, the amyloid nucleation score was “inactive”.
For CHISFWLTLWGRSNSEMWMD, the amyloid nucleation score was “inactive”.
In the case of IAQILDVQFSVHAIGVSRDM, the amyloid nucleation score is reported as “inactive”.
For TSSLDEGTFV, the amyloid nucleation score was 0.644 ± 0.16.
For CLFYIRS, the amyloid nucleation score was “inactive”.
With QCRSLITRWGDSVYCLWTK the amyloid nucleation score was “inactive”.
For NMSTAWRRGNPVCTDSKYRV, the amyloid nucleation score was “inactive”.
For TYFLSDWWRDRSNWLWFLAH, the amyloid nucleation score was “inactive”.
For VQCRDVLGNDVFCVYHLGVE, the amyloid nucleation score was “inactive”.
CYIVGVVGLSTDWFMSGHSD showed an amyloid nucleation score of 0.035 ± 0.9.
With EGRFLKLFWSGSL the amyloid nucleation score was -0.108 ± 0.51.
For DFTLTPMWRHFEGFNKVAWG, the amyloid nucleation score was “inactive”.
For STIFTVAVFDCNEHLARSKS, the amyloid nucleation score was “inactive”.
For FSLFLTLFHFFHTRLAACLL, the amyloid nucleation score was “inactive”.
For LVDCFKLCRELNGLILNVAA, the amyloid nucleation score was 1.07 ± 0.12.
For ESNGVSGPAQMERDTVPEVP, the amyloid nucleation score was “inactive”.
Substance VVISYQTSMTNHGCLSFYQW has an amyloid nucleation score of 2.13 ± 0.056.
In the case of WFWLRRSFGFYHVKSSNSFT, the amyloid nucleation score is reported as “inactive”.
In the case of TLLARFSPRLATTYSNAICG, the amyloid nucleation score is reported as “inactive”.
For ASLRLLVLVNSMWVGFFFNS, the amyloid nucleation score was “inactive”.
For HSVPLPMLYFHYNMILLMLL, the amyloid nucleation score was “inactive”.
For TTFSGETYEYYMFMCW, the amyloid nucleation score was 0.532 ± 0.17.
In the case of QFDLAMMSVVCYVFFMYWFL, the amyloid nucleation score is reported as “inactive”.
In the case of RSTVLIPWVDNTCTDQSSGW, the amyloid nucleation score is reported as 0.25 ± 0.21.
With IEVYYSNRSWCLRQIRGCTG the amyloid nucleation score was “inactive”.
Work on FLTVIGLYNLSDGPCCK yielded an amyloid nucleation score of 1.79 ± 0.06.
With NTPRRLHSYLFSTLWY the amyloid nucleation score was “inactive”.
In the case of GFDMRVGDRMYRDYGMMVGA, the amyloid nucleation score is reported as “inactive”.
In the case of GWNVWQGMNKNFGTYFSR, the amyloid nucleation score is reported as “inactive”.
For FCRQCNIVLFDQSVSL, the amyloid nucleation score was 1.87 ± 0.11.
In the case of MKCLEGMHFIIFLVLALCIY, the amyloid nucleation score is reported as “inactive”.
For VERRMTKVWTGARSPGRVFW, the amyloid nucleation score was “inactive”.
With MGISLMFESERVSVYEHGNL the amyloid nucleation score was “inactive”.
In the case of LWEDFLMVKSVVMN, the amyloid nucleation score is reported as “inactive”.
FTFGCSLCTMYTANSHFRGC gave an amyloid nucleation score of 1.87 ± 0.061.
In the case of SPRKTNEAWPTGLSYETSVA, the amyloid nucleation score is reported as “inactive”.
In the case of SSGSFS, the amyloid nucleation score is reported as “inactive”.
With GSDLSWGRYKNSRFSSSMSA the amyloid nucleation score was “inactive”.
For ERIIFYCNRVRRMLYGGLVR, the amyloid nucleation score was “inactive”.
CLLPVSVTLTASFLCQHVRY gave an amyloid nucleation score of 0.004 ± 0.75.
QTGCIPNER gave an amyloid nucleation score of 1.05 ± 0.23.
With EWVALNSSYLWYCPVM the amyloid nucleation score was “inactive”.
For VTGHLGKG, the amyloid nucleation score was “inactive”.
With PRCDYYQ the amyloid nucleation score was “inactive”.
